Experimental data: the Immune Epitope Database (IEDB)

What was measured:
Test in all cases: IEDB peptide-MHC binding, purified MHC/competitive/radioactivity; filed as Kd, often an IC50 or EC50 that approximates it; ≥ and ≤ were set here for values at or beyond the usual limits of such assays
HLA-A*03:01 = target: HLA-A*03:01
HLA-A*11:01 = target: HLA-A*11:01
HLA-A*31:01 = target: HLA-A*31:01
HLA-A*33:01 = target: HLA-A*33:01
HLA-A*68:01 = target: HLA-A*68:01
HLA-A*02:03 = details: source organism: Dengue virus 2 Jamaica/1409/1983
HLA-A*02:06 = details: source organism: Dengue virus 2 Jamaica/1409/1983
[1] = source organism: Vaccinia virus WR
[2] = source organism: Mammarenavirus brazilense
[3] = source organism: Mammarenavirus lassaense

Row | Sequence | Kd (HLA-A*03:01; [1]) [nM] | Kd (HLA-A*11:01; [1]) [nM] | Kd (HLA-A*31:01; [1]) [nM] | Kd (HLA-A*33:01; [1]) [µM] | Kd (HLA-A*68:01; [1]) [nM] | also measured
1 | KIKQDVRDK | 241 | 19800 | 9940 | ≥ 77.7 | ≥ 24900 | –
2 | LILAEYIRHR | 2190 | 738 | 80.4 | 5.39 | 1730 | –
3 | YFSFKKCLVY | 33 | 107 | 2780 | 9.06 | 578 | –
4 | TLILSNKLLY | 1290 | 1010 | 18000 | 18.7 | 4330 | –
5 | SLIKFISDNK | 14.9 | 23.7 | 2650 | ≥ 70 | 69.1 | –
6 | TFKIDAVRY | ≥ 78000 | 18900 | ≥ 34900 | ≥ 77.7 | 1900 | –
7 | GMCCIITASI | – | – | – | – | – | Kd (HLA-A*02:03): 84.1 nM
8 | RARFIGGYIK | 629 | 16.8 | 59.4 | 11.7 | 92.9 | –
9 | NLEMIDERKY | ≥ 70100 | ≥ 69800 | ≥ 24200 | ≥ 70 | ≥ 21400 | –
10 | IILAALFMY | 20.5 | 0.307 | 11400 | 13.3 | ≥ 55700 | –
11 | VMNIERQDYR | 11400 | 4140 | 46.7 | 0.0651 | 153 | –
12 | AISAVYFKAK | 8.04 | 26 | 1640 | ≥ 70 | 2530 | –
13 | YIRRNMINK | 10.6 | 568 | 2370 | ≥ 21.3 | 168 | –
14 | LLSINSSFY | 986 | 479 | 2390 | 6.34 | 3460 | –
15 | KTNSTVDVR | 1880 | 88.1 | 11 | 13.3 | 19.9 | –
16 | ITKEIKNRDK | 7890 | 18400 | ≥ 10000 | ≥ 35.8 | 2210 | –
17 | DILTYNKTSK | 2320 | ≥ 21100 | ≥ 38100 | 1.76 | 2970 | –

Row | Sequence | Kd (HLA-A*03:01; [1]) [nM] | Kd (HLA-A*11:01; [1]) [nM] | Kd (HLA-A*31:01; [1]) [nM] | Kd (HLA-A*33:01; [1]) [µM] | Kd (HLA-A*68:01; [1]) [nM] | also measured
18 | EILKINSVKY | 6090 | 6290 | 1040 | 5.17 | 3870 | –
19 | GMLIYSMWGK | 8.57 | 17.5 | 271 | 9.91 | 54.6 | –
20 | KMAVEVGSIR | 4540 | ≥ 21100 | 1670 | 13.7 | 95.8 | –
21 | ELGIAIFNNR | 961 | 1470 | 59.9 | 0.16 | 40.6 | –
22 | LFFTTTLFLH | – | – | – | – | – | Kd (HLA-A*03:01; [2]): 771 nM; Kd (HLA-A*11:01; [2]): 4120 nM; Kd (HLA-A*31:01; [2]): 232 nM; Kd (HLA-A*33:01; [2]): 0.191 µM; Kd (HLA-A*68:01; [2]): 445 nM
23 | NMKQCTNDIY | 211 | 16400 | ≥ 57400 | ≥ 65.7 | 2780 | –
24 | TLMSIISTFH | – | – | – | – | – | Kd (HLA-A*03:01; [3]): 6370 nM; Kd (HLA-A*11:01; [3]): ≥ 34600 nM; Kd (HLA-A*31:01; [3]): 8710 nM; Kd (HLA-A*33:01; [3]): 15.9 µM; Kd (HLA-A*68:01; [3]): 2920 nM
25 | SQVNPITLTA | – | – | – | – | – | Kd (HLA-A*02:06): 129 nM
26 | DVHPGEPVVK | 15400 | ≥ 23700 | ≥ 32000 | ≥ 70 | 57 | –
27 | SILARRPTPK | 1.08 | 1.44 | 372 | 12.3 | 147 | –
28 | DVRDKRRKY | ≥ 28900 | ≥ 77900 | ≥ 77900 | ≥ 77.7 | ≥ 53800 | –
29 | LIHDNIMYTY | 45.3 | 238 | 4160 | ≥ 32.3 | 566 | –
30 | EFVMCLEAK | ≥ 54200 | 965 | 9760 | 0.153 | 267 | –
31 | EILRNYLRLY | 489 | 2110 | 3460 | 0.123 | 512 | –
32 | SSIDVDKRTK | 493 | 0.841 | 752 | 8.97 | 19.1 | –
33 | LSKWHTSAR | 5830 | 3430 | 1.34 | 0.0153 | 20.7 | –
